# According to patent US6565869 (ISTITUTO DI RICERCHE DI BIOLOGIA MOLECOLARE P ANGELETTI S P …, dated 2003):
# Numbering of substitutions follows the chain as printed.
# T1: CNTF receptor-α (CNTFRα) (UniProt P26992 23-342, limits assumed)
# T1 construct: also called CNTFRa; CNTF a-receptor
# T1 sequence (looked up): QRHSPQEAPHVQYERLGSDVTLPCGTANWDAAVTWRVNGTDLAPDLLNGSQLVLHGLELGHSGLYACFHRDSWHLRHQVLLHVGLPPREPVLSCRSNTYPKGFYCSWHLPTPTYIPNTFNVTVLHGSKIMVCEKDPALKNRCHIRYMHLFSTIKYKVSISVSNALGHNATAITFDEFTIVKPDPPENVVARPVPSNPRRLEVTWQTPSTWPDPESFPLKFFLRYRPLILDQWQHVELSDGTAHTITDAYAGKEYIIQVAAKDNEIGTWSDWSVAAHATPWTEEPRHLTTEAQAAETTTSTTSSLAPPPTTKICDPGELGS
# B1: hCNTF (human ciliary neurotrophic factor), wild type (ligand)
# chain: MAFTEHSPLTPHRRDLCSRSIWLARKIRSDLTALTESYVKHQGLNKNINLDSADGMPVASTDQWSELTEAERLQENLQAYRTFHVLLARLLEDQQVHFTPTEGDFHQAIHTLLLQVAAFAYQIEELMILLEYKIPRNEADGMPINVGDGGLFEKKLWGLKVLQELSQWTVRSIHDLRFISSHQTGIPARGSHYIANNKKM
# notes: also called human CNTF
# B2: (Gln167Ala/Thr169Ser) hCNTF (ligand)
# chain: B1 chain with Q167A, T169S
# B3: (Ser166Gly/Gln167Ala) hCNTF (ligand)
# chain: B1 chain with S166G, Q167A
# B4: (Ser166Asp/Gln167Ala) hCNTF (ligand)
# chain: B1 chain with S166D, Q167A
# B5: (Ser166Ala/Gln167Ala) hCNTF (ligand)
# chain: B1 chain with S166A, Q167A
# B6: (Val170Arg/His174Ala) hCNTF (ligand)
# chain: B1 chain with V170R, H174A
# B7: (Ser166Asp/Gln167Ala/Arg177Phe) hCNTF (ligand)
# chain: B1 chain with S166D, Q167A, R177F
# B8: (Thr169Ile/His174Ala) hCNTF (ligand)
# chain: B1 chain with T169I, H174A
# notes: also called (Thr169Ile/His174Ala) hCNTP
# B9: (Ser166Asp/Gln167His) hCNTF (ligand)
# chain: B1 chain with S166D, Q167H
# notes: also called DH-CNTF; DH-hCNTF
# B10: (Lys160Gln/Gln167Ala) hCNTF (ligand)
# chain: B1 chain with K160Q, Q167A
# B11: (Ser166His/Gln167Ala) hCNTF (ligand)
# chain: B1 chain with S166H, Q167A
# B12: (Gln167Ala/His174Ala) hCNTF (ligand)
# chain: B1 chain with Q167A, H174A
# B13: (Gln63Arg/Ser166Asp/Gln167His) hCNTF (ligand)
# chain: B1 chain with Q63R, S166D, Q167H
# B14: (Asp30Gln/Ser166Asp/Gln167His) hCNTF (ligand)
# chain: B1 chain with D30Q, S166D, Q167H
# B15: (Gln167Thr) hCNTF (ligand)
# chain: B1 chain with Q167T
# B16: (Val161Leu/Gln167Ala) hCNTF (ligand)
# chain: B1 chain with V161L, Q167A
# B17: (Gln167Ala) hCNTF (ligand)
# chain: B1 chain with Q167A
# B18: (Ser166Asn/Gln167Ala) hCNTF (ligand)
# chain: B1 chain with S166N, Q167A
# B19: (Gln167Ala/Thr169Leu) hCNTF (ligand)
# chain: B1 chain with Q167A, T169L
# B20: (Lys160Gln/Gln167Thr) hCNTF (ligand)
# chain: B1 chain with K160Q, Q167T
# B21: (Gln63Arg) hCNTF (ligand)
# chain: B1 chain with Q63R
# B22: (Phe152Ala/Ser166Asp/Gln167His) hCNTF (ligand)
# chain: B1 chain with F152A, S166D, Q167H
# B23: (Lys155Ala/Ser166Asp/Gln167His) hCNTF (ligand)
# chain: B1 chain with K155A, S166D, Q167H
# B24: (Gln167Ala/Thr169Leu/Phe178Ile) hCNTF (ligand)
# chain: B1 chain with Q167A, T169L, F178I
# B25: (Gln167Tyr) hCNTF (ligand)
# chain: B1 chain with Q167Y
# B26: (Ser166Asp/Gln167Ala/Thr169Leu) hCNTF (ligand)
# chain: B1 chain with S166D, Q167A, T169L
# B27: (Gln167Ala/Arg177Leu) hCNTF (ligand)
# chain: B1 chain with Q167A, R177L
# B28: (Gln163Ser/Gln167His) hCNTF (ligand)
# chain: B1 chain with Q163S, Q167H
# Target: T1, CNTF receptor-α (CNTFRα)
# Experiment: solid phase binding assay on CNTFRα
# Protocol: The relative binding affinities to CNTF receptor-α (CNTFRα) of hCNTF and different hCNTF variants were determined by solid phase binding assay as previously described (10). […] These variants, like DH-CNTF, have increased utility for treatment of obesity and associated diseases, such as diabetes.
row,Relative Binding (hCNTF = 1),Binder
1,1.1 relative (hCNTF = 1),B1
2,6.9 relative (hCNTF = 1),B2
3,7.5 relative (hCNTF = 1),B3
4,13.5 relative (hCNTF = 1),B4
5,8.1 relative (hCNTF = 1),B5
6,3.3 relative (hCNTF = 1),B6
7,13.1 relative (hCNTF = 1),B7
8,0.07 relative (hCNTF = 1),B8
9,22.8 relative (hCNTF = 1),B9
10,11.7 relative (hCNTF = 1),B10
11,8.8 relative (hCNTF = 1),B11
12,3.6 relative (hCNTF = 1),B12
13,66 relative (hCNTF = 1),B13
14,30 relative (hCNTF = 1),B14
15,11.8 relative (hCNTF = 1),B15
16,8.8 relative (hCNTF = 1),B16
17,9 relative (hCNTF = 1),B17
18,12.4 relative (hCNTF = 1),B18
19,9.6 relative (hCNTF = 1),B19
20,3.1 relative (hCNTF = 1),B20
21,2 relative (hCNTF = 1),B21
22,32 relative (hCNTF = 1),B22
23,51 relative (hCNTF = 1),B23
24,8.4 relative (hCNTF = 1),B24
25,9.6 relative (hCNTF = 1),B25
26,21 relative (hCNTF = 1),B26
27,11.7 relative (hCNTF = 1),B27
28,4.1 relative (hCNTF = 1),B28
